Data published in patent US20050282216A1.
pKd: −log10 of the molar value.

Legend:
human IL-13Rα (human) [1] = target: human IL-13Rα (human) (UniProt P78552); assay: radioligand binding on CHO cells; the basis of this value is not explained
human IL-13Rβ (human) [2] = target: human IL-13Rβ (human) (UniProt Q14627); assay: Scatchard analysis of saturation binding of 125I-labelled IL-13 on Caki-1 cells
human IL-13Rα (human) [3] = target: human IL-13Rα (human) (UniProt P78552); assay: Scatchard analysis of saturation binding on CHO cells transfected with IL-13Rα cDNA
human IL-13Rβ (human) [4] = target: human IL-13Rβ (human) (UniProt Q14627); assay: Scatchard analysis of saturation binding on COS-7 cells transfected with IL-13Rβ cDNA
[5] = target: hIL-13Rα and hIL-4R coexpressed on cells (reconstituted high-affinity receptor) (human) (UniProt P24394); assay: Scatchard analysis on CHO-hIL4R cells transfected with hIL-13Rα cDNA, high-affinity site
human IL-13Rα (human) [6] = target: human IL-13Rα (human) (UniProt P78552); assay: Scatchard analysis on CHO-hIL4R cells transfected with hIL-13Rα cDNA, low-affinity site (nonassociated IL-13Rα chains)

Chain of UniProt P78552 (P78552 22-427 limits assumed, form in doubt): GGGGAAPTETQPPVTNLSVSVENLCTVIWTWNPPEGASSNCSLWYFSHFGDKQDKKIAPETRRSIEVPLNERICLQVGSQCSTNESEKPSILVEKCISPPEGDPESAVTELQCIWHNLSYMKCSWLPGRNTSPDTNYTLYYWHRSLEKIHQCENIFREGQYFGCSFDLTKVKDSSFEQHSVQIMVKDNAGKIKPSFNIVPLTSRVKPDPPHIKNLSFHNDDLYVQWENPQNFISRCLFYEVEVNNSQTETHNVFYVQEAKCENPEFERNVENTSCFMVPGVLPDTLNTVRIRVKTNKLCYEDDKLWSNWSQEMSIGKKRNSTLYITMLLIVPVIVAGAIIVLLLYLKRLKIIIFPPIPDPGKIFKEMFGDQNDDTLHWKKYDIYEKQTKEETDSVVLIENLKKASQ
Chain of UniProt Q14627 (Q14627 27-380 limits assumed, form in doubt): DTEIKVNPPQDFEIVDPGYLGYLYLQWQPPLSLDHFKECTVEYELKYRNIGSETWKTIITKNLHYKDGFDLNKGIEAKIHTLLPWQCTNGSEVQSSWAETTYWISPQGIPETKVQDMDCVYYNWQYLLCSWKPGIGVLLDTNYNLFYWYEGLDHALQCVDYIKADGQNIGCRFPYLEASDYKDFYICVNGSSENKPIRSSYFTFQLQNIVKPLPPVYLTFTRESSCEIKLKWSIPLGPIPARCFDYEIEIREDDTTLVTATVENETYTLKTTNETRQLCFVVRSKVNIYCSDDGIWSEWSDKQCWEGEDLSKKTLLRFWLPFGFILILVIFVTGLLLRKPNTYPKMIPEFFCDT

- pKd (human IL-13Rα (human) [1]): 8.12
- pKd (human IL-13Rβ (human) [2]): 9.35
- pKd (human IL-13Rα (human) [3]): 8.35
- pKd (human IL-13Rβ (human) [4]): 9.60
- pKd [5]: 10.64
- pKd (human IL-13Rα (human) [6]): 8.38
Substance: [125I][Phe43]-IL-13-GlyTyrGlyTyr (from UniProt P35225 35-146) (ligand)
